Experimental data reported in the RNAGym collection of RNA variant scans (doi:10.7554/elife.90254).

B1: LINE1-mini (parent)
chain: GGCAGAGCUCAACACAGCGUGGCAAAGUGGCUGUGGCUAGACUGCC

Variants of: B1
Experiment: self-cleavage, relative activity (ratio to wild type); higher = more cleavage; in vitro, sequencing; the parent is a self-cleaving ribozyme

Row | Variant | self-cleavage
1 | GGCAGAGCUCAACACAGCGUGGCAAAGUGUCUGUGGCUAGACUCCC | 0.16
2 | GGCAGAGCUCAACACAGCGUGGCAAAGUGUCUGUGGCUAGACUUCC | 0.21
3 | GGCAGAGCUCAACACAGCGUGGCAAAGUGUCUGUGGCUAGACUACC | 0.42
4 | GGCAGAGCUCAACACAGCGUGGCAAAGUGUCUGUGGCUAGCCUGCC | 0.06
5 | GGCAGAGCUCAACACAGCGUGGCAAAGUGUCUGUGGCUAGUCUGCC | 0.64
6 | GGCAGAGCUCAACACAGCGUGGCAAAGUGUCUGUGGCUAGGCUGCC | 0.35
7 | GGCAGAGCUCAACACAGCGUGGCAAAGUGCCUGUGGCUAGACUGUC | 0.88
8 | GGCAGAGCUCAACACAGCGUGGCAAAGUGCCUGUGGCUAGACUGAC | 0.33
9 | GGCAGAGCUCAACACAGCGUGGCAAAGUGCCUGUGGCUAGACUGGC | 0.21
10 | GGCAGAGCUCAACACAGCGUGGCAAAGUGUCUGUGGCUUGACUGCC | 0.87
11 | GGCAGAGCUCAACACAGCGUGGCAAAGUGUCUGUGGCUCGACUGCC | 0.19
12 | GGCAGAGCUCAACACAGCGUGGCAAAGUGUCUGUGGCUGGACUGCC | 0.09
13 | GGCAGAGCUCAACACAGCGUGGCAAAGUGCCUGUGGCUAGUCUGCC | 0.73
14 | GGCAGAGCUCAACACAGCGUGGCAAAGUGCCUGUGGCUAGCCUGCC | 0.05
15 | GGCAGAGCUCAACACAGCGUGGCAAAGUGCCUGUGGCUAGGCUGCC | 0.21
16 | GGCAGAGCUCAACACAGCGUGGCAAAGUGCCUGUGGCUAGACCGCC | 0.25
17 | GGCAGAGCUCAACACAGCGUGGCAAAGUGCCUGUGGCUAGACAGCC | 0.06
18 | GGCAGAGCUCAACACAGCGUGGCAAAGUGCCUGUGGCUAGACGGCC | 0.02
19 | GGCAGAGCUCAACACAGCGUGGCAAAGUGCUUGUGGCUAGACUGCC | 1.32

Row | Variant | self-cleavage
20 | GGCAGAGCUCAACACAGCGUGGCAAAGUGCAUGUGGCUAGACUGCC | 0.75
21 | GGCAGAGCUCAACACAGCGUGGCAAAGUGCGUGUGGCUAGACUGCC | 0.44
22 | GGCAGAGCUCAACACAGCGUGGCAAAGUGCCUGUGACUAGACUGCC | 0.1
23 | GGCAGAGCUCAACACAGCGUGGCAAAGUGCCUGUGCCUAGACUGCC | 0.06
24 | GGCAGAGCUCAACACAGCGUGGCAAAGUGCCUGUGUCUAGACUGCC | 0.11
25 | GGCAGAGCUCAACACAGCGUGGCAAAGUGUCUGUGGAUAGACUGCC | 0.08
26 | GGCAGAGCUCAACACAGCGUGGCAAAGUGUCUGUGGGUAGACUGCC | 0.05
27 | GGCAGAGCUCAACACAGCGUGGCAAAGUGUCUGUGGUUAGACUGCC | 0.05
28 | GGCAGAGCUCAACACAGCGUGGCAAAGUGCCUGUGGUUAGACUGCC | 0.1
29 | GGCAGAGCUCAACACAGCGUGGCAAAGUGCCUGUGGGUAGACUGCC | 0.07
30 | GGCAGAGCUCAACACAGCGUGGCAAAGUGCCUGUGGAUAGACUGCC | 0.07
31 | GGCAGAGCUCAACACAGCGUGGCAAAGUGGAUGUGGCUCGACUGCC | 0.05
32 | GGCAGAGCUCAACACAGCGUGGCAAAGUGGAUGUGGCUGGACUGCC | 0.05
33 | GGCAGAGCUCAACACAGCGUGGCAAAGUGGAUGUGGCUUGACUGCC | 0.11
34 | GGCAGAGCUCAACACAGCGUGGCAAAGUGACUGUGGCUAGACCGCC | 0.22
35 | GGCAGAGCUCAACACAGCGUGGCAAAGUGACUGUGGCUAGACAGCC | 0.12
36 | GGCAGAGCUCAACACAGCGUGGCAAAGUGUCUGCGGCUAGACUGCC | 0.05
37 | GGCAGAGCUCAACACAGCGUGGCAAAGUGUCUGAGGCUAGACUGCC | 0.05
38 | GGCAGAGCUCAACACAGCGUGGCAAAGUGUCUGGGGCUAGACUGCC | 0.09

Row | Variant | self-cleavage
39 | GGCAGAGCUCAACACAGCGUGGCAAAGUGUCUAUGGCUAGACUGCC | 0.08
40 | GGCAGAGCUCAACACAGCGUGGCAAAGUGUCUCUGGCUAGACUGCC | 0.11
41 | GGCAGAGCUCAACACAGCGUGGCAAAGUGUCUUUGGCUAGACUGCC | 0.08
42 | GGCAGAGCUCAACACAGCGUGGCAAAGUGUCUGUGGCUAGACAGCC | 0.11
43 | GGCAGAGCUCAACACAGCGUGGCAAAGUGUCUGUGGCUAGACCGCC | 0.1
44 | GGCAGAGCUCAACACAGCGUGGCAAAGUGUCUGUGGCUAGACGGCC | 0.2
45 | GGCAGAGCUCAACACAGCGUGGCAAAGUGCCUUUGGCUAGACUGCC | 0.07
46 | GGCAGAGCUCAACACAGCGUGGCAAAGUGCCUAUGGCUAGACUGCC | 0.06
47 | GGCAGAGCUCAACACAGCGUGGCAAAGUGCCUCUGGCUAGACUGCC | 0.03
48 | GGCAGAGCUCAACACAGCGUGGCAAAGUGUCUGUGGCAAGACUGCC | 1
49 | GGCAGAGCUCAACACAGCGUGGCAAAGUGUCUGUGGCCAGACUGCC | 1.12
50 | GGCAGAGCUCAACACAGCGUGGCAAAGUGUCUGUGGCGAGACUGCC | 0.03
51 | GGCAGAGCUCAACACAGCGUGGCAAAGUGUAUGUGGCUAGACUGCC | 0.19
52 | GGCAGAGCUCAACACAGCGUGGCAAAGUGUGUGUGGCUAGACUGCC | 0.06
53 | GGCAGAGCUCAACACAGCGUGGCAAAGUGUUUGUGGCUAGACUGCC | 0.07
54 | GGCAGAGCUCAACACAGCGUGGCAAAGUGGAUGUGGAUAGACUGCC | 0.08
55 | GGCAGAGCUCAACACAGCGUGGCAAAGUGGAUGUGGGUAGACUGCC | 0.07
56 | GGCAGAGCUCAACACAGCGUGGCAAAGUGGAUGUGGUUAGACUGCC | 0.09
